This note sets out measurements from US20250289899A1 (Genmab, published 2025).

Experiment [1] has as its target T1, human CD27, full length, on cells (T cells, transfected HEK293F cells, Daudi cells, NFκB-luc2/CD27 Jurkat … (human, UniProt P26842 20-240)).
T1 construct: Residues 1-19 are stated to be the signal peptide; also called TNFRSF7
T1 sequence: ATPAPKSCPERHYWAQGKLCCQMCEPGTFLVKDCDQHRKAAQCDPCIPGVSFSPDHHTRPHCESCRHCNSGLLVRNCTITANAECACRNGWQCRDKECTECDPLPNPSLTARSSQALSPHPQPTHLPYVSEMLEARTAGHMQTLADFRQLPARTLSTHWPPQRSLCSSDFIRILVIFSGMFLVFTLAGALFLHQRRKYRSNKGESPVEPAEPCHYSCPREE
In words: flow cytometry on CD8+ T cells in human PBMC, FITC goat anti-human IgG F(ab')2, median FITC. How it is done: Binding of IgG1-CD27-A-P329R-E345R to CD27 on human healthy donor T cells was characterized in more detail using flow cytometry. Anti-HIV gp120 antibody variant IgG1-b12-P329R-E345R was used as non-binding control antibody (ctrl). Human PBMCs were isolated from buffy coats obtained from human healthy donors. PBMC (1×10⁵ cells/well) in FACS buffer were added to polystyrene 96-well round-bottom plates (Greiner bio-one, Cat #650101) and pelleted by centrifugation at 300×g for 3 min at 4° C. The cells were resuspended in 50 μL/well serial antibody dilutions in FACS buffer (range 0.0015 to 10 μg/mL in 3-fold dilution steps) and incubated for 30 min at 4° C. Cells were pelleted, washed twice with FACS buffer and incubated in 50 μL/well with FITC-conjugated secondary antibody (FITC AffiniPure F(ab′)₂ fragment goat anti-human IgG, F(ab′)₂ fragment specific, Jackson ImmunoResearch, Cat #109-096-097, diluted 1:100) for 30 min at 4° C. in the dark. […] The samples were measured by flow cytometry on an LSRFortessa (BD) flow cytometer and analyzed using FlowJo software. Binding curves were analyzed using non-linear regression (sigmoidal dose-response with variable slope) using GraphPad Prism 8 software.
For orientation: Flow cytometry measures light scatter and fluorescence of single cells or particles in a stream.

Experiment [2] addresses T2, human C1q (from normal human serum) (human, UniProt P02745 23-245; P02746 28-253; P02747 29-245).
T2 construct: 20% normal human serum was the source of C1q
In words: flow cytometry, C1q (20% normal human serum) on human T cells pre-incubated with the antibody, FITC rabbit anti-human C1q, median MFI FITC; antibody concentration varied. Here is the method: The P329R mutation was previously described to reduce interaction of IgG1 antibodies with C1q and FcgR (Overdijk et al, Molecular Cancer Therapeutics 2020). The effect of the P329R mutation on C1q binding of IgG1-CD27-A comprising the E345R mutation was tested in cellular C1q binding assays in vitro using human healthy donor T cells. Anti-HIV gp120 antibody IgG1-b12-F405L was used as non-binding isotype control antibody (ctrl). […] T cells (2×10⁶ cells/well) were pre-incubated in polystyrene 96-well round-bottom plates with antibody dilution series (8× five-fold dilution starting at 15 μg/mL final assay concentration) for 15 min at 37° C. to allow the antibodies to bind to the T cells. Then, cells were cooled on ice, supplemented with NHS as a source of human C1q (20% NHS final assay concentration) and incubated on ice for 45 min. Cells were subsequently incubated on ice with FITC-labeled Rabbit anti-human C1q antibody (DAKO, Cat #F0254; 20 μg/mL) for 30 min and resuspended in FACS buffer with TO-PRO-3 (ThermoFisher, Cat #T3605; 1:5,000 dilution). C1q binding was determined by flow cytometry measuring the FITC signal on live cells.

Experiment [3] deals with T3, recombinant His-tagged human FcγRIIIa (176-Phe [F]) (human, UniProt P08637 17-208).
T3 construct: Bought; captured on anti-His chip; also called FcγRIIIa-F; not shown: His tag
The experiment is described as follows: SPR (Biacore), His-tagged FcγRIIIa-F captured on anti-His chip, antibody in solution, resonance units against antibody concentration.

The target of experiment [4] is T4, recombinant His-tagged human FcγRIIa (167-Arg [R]) (human, UniProt P12318 34-218, limits assumed).
T4 construct: Bought; captured on anti-His chip; also called FcγRIIa-R; not shown: His tag
T4 sequence (looked up): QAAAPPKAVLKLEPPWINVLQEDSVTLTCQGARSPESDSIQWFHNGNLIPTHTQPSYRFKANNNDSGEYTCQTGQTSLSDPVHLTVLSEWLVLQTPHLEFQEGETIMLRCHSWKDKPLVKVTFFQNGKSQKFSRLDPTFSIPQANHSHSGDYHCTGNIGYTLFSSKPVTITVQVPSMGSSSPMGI
In words: SPR (Biacore), His-tagged FcγRIIa-R captured on anti-His chip, antibody in solution, resonance units against antibody concentration. Background: In SPR one partner is held on a chip, and binding of the other changes the refractive index at the surface.

T2 sequence (P02745 23-245 limits assumed, chain 1 of 3): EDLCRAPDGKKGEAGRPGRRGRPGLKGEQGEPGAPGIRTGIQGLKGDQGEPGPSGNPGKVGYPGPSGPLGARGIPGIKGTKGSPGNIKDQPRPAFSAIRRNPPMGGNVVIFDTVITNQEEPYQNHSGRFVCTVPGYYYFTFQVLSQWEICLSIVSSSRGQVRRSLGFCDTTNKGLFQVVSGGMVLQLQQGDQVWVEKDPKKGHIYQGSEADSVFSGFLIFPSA
T2 sequence (P02746 28-253 limits assumed, chain 2 of 3): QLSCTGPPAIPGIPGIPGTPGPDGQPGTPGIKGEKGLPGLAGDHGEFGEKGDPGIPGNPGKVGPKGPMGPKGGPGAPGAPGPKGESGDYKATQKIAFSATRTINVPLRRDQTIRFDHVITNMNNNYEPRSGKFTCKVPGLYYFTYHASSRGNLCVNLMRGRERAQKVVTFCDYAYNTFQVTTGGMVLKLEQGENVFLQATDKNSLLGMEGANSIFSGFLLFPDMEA
T2 sequence (P02747 29-245 limits assumed, chain 3 of 3): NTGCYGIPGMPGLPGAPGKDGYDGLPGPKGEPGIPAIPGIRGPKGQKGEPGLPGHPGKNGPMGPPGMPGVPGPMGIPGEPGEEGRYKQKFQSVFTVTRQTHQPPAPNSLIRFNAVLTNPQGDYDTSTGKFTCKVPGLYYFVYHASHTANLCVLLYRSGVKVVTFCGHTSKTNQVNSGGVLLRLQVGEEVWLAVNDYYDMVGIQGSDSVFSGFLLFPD
T3 sequence (P08637 17-208 limits assumed): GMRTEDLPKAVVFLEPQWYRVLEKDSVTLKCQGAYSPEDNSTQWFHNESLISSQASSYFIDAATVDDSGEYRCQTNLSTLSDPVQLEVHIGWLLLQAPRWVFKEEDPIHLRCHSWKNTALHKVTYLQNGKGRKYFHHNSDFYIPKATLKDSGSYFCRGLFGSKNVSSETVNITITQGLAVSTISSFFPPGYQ

B1: IgG1-CD27-A-P329R-E345R (antibody)
heavy: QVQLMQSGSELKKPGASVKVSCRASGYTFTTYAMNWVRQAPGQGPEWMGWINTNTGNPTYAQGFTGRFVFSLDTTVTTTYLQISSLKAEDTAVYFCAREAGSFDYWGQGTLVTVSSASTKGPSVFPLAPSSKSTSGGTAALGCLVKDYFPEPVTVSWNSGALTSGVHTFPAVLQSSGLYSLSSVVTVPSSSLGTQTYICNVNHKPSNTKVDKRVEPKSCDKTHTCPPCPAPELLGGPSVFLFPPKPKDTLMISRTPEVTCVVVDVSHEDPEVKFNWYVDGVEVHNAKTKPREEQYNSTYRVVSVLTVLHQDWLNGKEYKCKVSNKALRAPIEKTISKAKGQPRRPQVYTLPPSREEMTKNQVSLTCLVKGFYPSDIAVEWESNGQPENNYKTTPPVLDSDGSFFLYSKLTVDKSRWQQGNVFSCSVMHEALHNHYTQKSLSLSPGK
light: QSALTQPASVSGSPGQSITISCTGTSSDVYYYNYVSWYQQHPGRAPKLVIYDVSNRPSGVSNRFSGSKSGNTASLTISGLRAEDEADYYCSSYTVNRVWVFGGGTKLTVLGQPKAAPSVTLFPPSSEELQANKATLVCLISDFYPGAVTVAWKADSSPVKAGVETTTPSKQSNNKYAASSYLSLTPEQWKSHRSYSCQVTHEGSTVEKTVAPTECS
notes: also called IgG1-CD27-A-E345R-P329R
The term EC50 (read off the curve) denotes the concentration needed to bring the measured effect to its halfway point. Read a low EC50 (read off the curve) as an effect from little substance. In the case of B1, the “EC50 (read off the curve)” value in experiment [1] is around 0.03 mg/L. Besides, the figures for the binding result in experiment [2], in experiment [3] and in experiment [4] were “no binding (tested: 15 µg/mL)”, “no binding (tested: 10,000 nM)” and “no binding (tested: 10,000 nM)”, respectively.
